According to FireProtDB (doi:10.1006/jmbi.1993.1336):

Settings: Aspergillus oryzae (strain ATCC 42149 / RIB 40), GdnHCl, Fluorescence, reversible: yes, whole UniProt chain shown
[1] = pH 5, 25 °C, Sodium acetate 0.1 M

B1: Guanyl-specific ribonuclease T1 wild type, P00651 (protein)
chain: MMYSKLLTLTTLLLPTALALPSLVERACDYTCGSNCYSSSDVSTAQAAGYQLHEDGETVGSNSYPHKYNNYEGFDFSVSSPYYEWPILSSGDVYSGGSPGADRVVFNENNQLAGVITHTGASGNNFVECT
- denaturant m value [1]: 2.75 kcal/mol/M
- denaturant midpoint (higher = more stable) [1]: 3.64 M
- unfolding free energy [1]: 10 kcal/mol
- denaturant m value (pH 8, 10 °C, Tris 0.1 M): 2.63 kcal/mol/M
- denaturant midpoint (higher = more stable) (pH 8, 10 °C, Tris 0.1 M): 3.21 M
- unfolding free energy (pH 8, 10 °C, Tris 0.1 M): 8.44 kcal/mol
- denaturant m value (pH 8, 25 °C, Tris 0.1 M): 2.46 kcal/mol/M
- denaturant midpoint (higher = more stable) (pH 8, 25 °C, Tris 0.1 M): 2.4 M
- unfolding free energy (pH 8, 25 °C, Tris 0.1 M): 5.91 kcal/mol
